± gives the standard deviation of the averaged measurements.
Experiments:
Saccharomyces cerevisiae [1] = test: protein stability index of tFT-peptide fusion (C-terminal peptide) (PSI (0-1 scale)); higher = more stable (slower turnover); conditions: genetic background: wild type; temperature: 30 C
Saccharomyces cerevisiae [2] = test: as above
Experimental: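 MPS profiling in S. cerevisiae of the tFT-X12 degron library: putative degron peptides plus stable controls, 12 aa, fused to the C-terminus of a sfGFP-mCherry timer. Cells are FACS-sorted into 8 mCherry/sfGFP bins and deep-sequenced. PSI runs from 0 (unstable) to 1 (stable). Backgrounds are wild type, das1Δ and doa10Δ at 30 °C, and wild type, das1Δ, cdc34-1 and cdc53-1 at 37 °C; 2-3 technical replicates each.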

[3] = genetic background: cdc34-1, temperature: 37 C
[4] = genetic background: cdc53-1, temperature: 37 C
[5] = genetic background: das1 deletion, temperature: 30 C
[6] = genetic background: das1 deletion, temperature: 37 C
[7] = genetic background: doa10 deletion, temperature: 30 C
[8] = genetic background: wild type, temperature: 30 C
[9] = genetic background: wild type, temperature: 37 C
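Further: PSI is a weighted mean of sequencing reads over stability bins, variants kept only with over 10 reads, mCherry proximal and sfGFP distal, peptide attached via GGGS linker.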

LVFFLFFFRCFS
protein stability index (Saccharomyces cerevisiae [1]): 0.449 ± 0.035 | protein stability index (Saccharomyces cerevisiae [2]; [3]): 0.506 ± 0.059 | protein stability index (Saccharomyces cerevisiae [2]; [4]): 0.514 ± 0.016 | protein stability index (Saccharomyces cerevisiae [2]; [5]): 0.37 ± 0.049 | protein stability index (Saccharomyces cerevisiae [2]; [6]): 0.534 ± 0.014 | protein stability index (Saccharomyces cerevisiae [2]; [7]): 0.3734 ± 0.0018 | protein stability index (Saccharomyces cerevisiae [2]; [8]): 0.36 ± 0.033 | protein stability index (Saccharomyces cerevisiae [2]; [9]): 0.488 ± 0.0042

DCLSFVLFLFLC
protein stability index (Saccharomyces cerevisiae [1]): 0.183 ± 0.017 | protein stability index (Saccharomyces cerevisiae [2]; [3]): 0.203 ± 0.038 | protein stability index (Saccharomyces cerevisiae [2]; [4]): 0.259 ± 0.015 | protein stability index (Saccharomyces cerevisiae [2]; [5]): 0.239 ± 0.025 | protein stability index (Saccharomyces cerevisiae [2]; [6]): 0.39151 ± 0.00036 | protein stability index (Saccharomyces cerevisiae [2]; [7]): 0.149 ± 0.007 | protein stability index (Saccharomyces cerevisiae [2]; [8]): 0.134 ± 0.022 | protein stability index (Saccharomyces cerevisiae [2]; [9]): 0.149 ± 0.0066

RSSGHLLDGRAF
protein stability index (Saccharomyces cerevisiae [1]): 0.539 ± 0.096 | protein stability index (Saccharomyces cerevisiae [2]; [3]): 0.697 ± 0.03 | protein stability index (Saccharomyces cerevisiae [2]; [4]): 0.739 ± 0.011 | protein stability index (Saccharomyces cerevisiae [2]; [5]): 0.64 ± 0.02 | protein stability index (Saccharomyces cerevisiae [2]; [6]): 0.752 ± 0.011 | protein stability index (Saccharomyces cerevisiae [2]; [7]): 0.631 ± 0.029 | protein stability index (Saccharomyces cerevisiae [2]; [8]): 0.654 ± 0.021 | protein stability index (Saccharomyces cerevisiae [2]; [9]): 0.7353 ± 0.0026

FFLFLVCLFFFS
protein stability index (Saccharomyces cerevisiae [1]): 0.37 ± 0.026 | protein stability index (Saccharomyces cerevisiae [2]; [3]): 0.405 ± 0.016 | protein stability index (Saccharomyces cerevisiae [2]; [4]): 0.36 ± 0.1 | protein stability index (Saccharomyces cerevisiae [2]; [5]): 0.358 ± 0.032 | protein stability index (Saccharomyces cerevisiae [2]; [6]): 0.487 ± 0.011 | protein stability index (Saccharomyces cerevisiae [2]; [7]): 0.36 ± 0.049 | protein stability index (Saccharomyces cerevisiae [2]; [8]): 0.355 ± 0.031 | protein stability index (Saccharomyces cerevisiae [2]; [9]): 0.4333 ± 0.0037

LVRGSRLIVIVG
protein stability index (Saccharomyces cerevisiae [1]): 0.423 ± 0.026 | protein stability index (Saccharomyces cerevisiae [2]; [3]): 0.444 ± 0.01 | protein stability index (Saccharomyces cerevisiae [2]; [4]): 0.473 ± 0.028 | protein stability index (Saccharomyces cerevisiae [2]; [5]): 0.333 ± 0.025 | protein stability index (Saccharomyces cerevisiae [2]; [6]): 0.5181 ± 0.0045 | protein stability index (Saccharomyces cerevisiae [2]; [7]): 0.289 ± 0.0053 | protein stability index (Saccharomyces cerevisiae [2]; [8]): 0.328 ± 0.034 | protein stability index (Saccharomyces cerevisiae [2]; [9]): 0.492 ± 0.019

VVWVYSMLFSIW
protein stability index (Saccharomyces cerevisiae [1]): 0.276 ± 0.0055 | protein stability index (Saccharomyces cerevisiae [2]; [3]): 0.19 ± 0.02 | protein stability index (Saccharomyces cerevisiae [2]; [4]): 0.3594 ± 0.00053 | protein stability index (Saccharomyces cerevisiae [2]; [5]): 0.231 ± 0.034 | protein stability index (Saccharomyces cerevisiae [2]; [6]): 0.403 ± 0.015 | protein stability index (Saccharomyces cerevisiae [2]; [7]): 0.202 ± 0.013 | protein stability index (Saccharomyces cerevisiae [2]; [8]): 0.221 ± 0.021 | protein stability index (Saccharomyces cerevisiae [2]; [9]): 0.415 ± 0.068

CGVWVVVASAYR
protein stability index (Saccharomyces cerevisiae [1]): 0.377 ± 0.03 | protein stability index (Saccharomyces cerevisiae [2]; [3]): 0.43 ± 0.019 | protein stability index (Saccharomyces cerevisiae [2]; [4]): 0.483 ± 0.03 | protein stability index (Saccharomyces cerevisiae [2]; [5]): 0.302 ± 0.02 | protein stability index (Saccharomyces cerevisiae [2]; [6]): 0.49431 ± 0.00019 | protein stability index (Saccharomyces cerevisiae [2]; [7]): 0.2812 ± 0.0017 | protein stability index (Saccharomyces cerevisiae [2]; [8]): 0.304 ± 0.019 | protein stability index (Saccharomyces cerevisiae [2]; [9]): 0.508 ± 0.0093

FVVSCLSWVFLF
protein stability index (Saccharomyces cerevisiae [1]): 0.175 ± 0.024 | protein stability index (Saccharomyces cerevisiae [2]; [3]): 0.429 ± 0.0099 | protein stability index (Saccharomyces cerevisiae [2]; [4]): 0.528 ± 0.04 | protein stability index (Saccharomyces cerevisiae [2]; [5]): 0.434 ± 0.032 | protein stability index (Saccharomyces cerevisiae [2]; [6]): 0.5418 ± 0.004 | protein stability index (Saccharomyces cerevisiae [2]; [7]): 0.101 ± 0.022 | protein stability index (Saccharomyces cerevisiae [2]; [8]): 0.114 ± 0.025 | protein stability index (Saccharomyces cerevisiae [2]; [9]): 0.127 ± 0.026

LQSYVSRLVRLS
protein stability index (Saccharomyces cerevisiae [1]): 0.295 ± 0.015 | protein stability index (Saccharomyces cerevisiae [2]; [3]): 0.618 ± 0.082 | protein stability index (Saccharomyces cerevisiae [2]; [4]): 0.745 ± 0.027 | protein stability index (Saccharomyces cerevisiae [2]; [5]): 0.653 ± 0.041 | protein stability index (Saccharomyces cerevisiae [2]; [6]): 0.7356 ± 0.00043 | protein stability index (Saccharomyces cerevisiae [2]; [7]): 0.191 ± 0.0033 | protein stability index (Saccharomyces cerevisiae [2]; [8]): 0.186 ± 0.036 | protein stability index (Saccharomyces cerevisiae [2]; [9]): 0.359 ± 0.055

LLHFVLYFLSCT
protein stability index (Saccharomyces cerevisiae [1]): 0.456 ± 0.018 | protein stability index (Saccharomyces cerevisiae [2]; [3]): 0.51 ± 0.057 | protein stability index (Saccharomyces cerevisiae [2]; [4]): 0.548 ± 0.0012 | protein stability index (Saccharomyces cerevisiae [2]; [5]): 0.442 ± 0.03 | protein stability index (Saccharomyces cerevisiae [2]; [6]): 0.5554 ± 0.0051 | protein stability index (Saccharomyces cerevisiae [2]; [7]): 0.42 ± 0.03 | protein stability index (Saccharomyces cerevisiae [2]; [8]): 0.434 ± 0.01 | protein stability index (Saccharomyces cerevisiae [2]; [9]): 0.549 ± 0.012
